Test system in one data set: not listed separately
Briefly: In vivo pharmacokinetics in CD1 nu/nu mice. The conditions noted are these: 10 mg/kg and 5 mg/kg, peptibodies without LE sequences. More on the design: species or system mouse. The method, then:
In vivo pharmacokinetics experiments were performed using representative peptibodies without the LE sequences.
For the substance “1× mTN8-19-7: 1× affinity-matured peptibody; peptide LADHGQCIRWPWMCPPEGWE”, the half-life result is on record as “about 65 hours”.

For “1× mTN8-19-22: 1× affinity-matured peptibody; peptide TFSQGHCTRWPWMCPPQGWG”, the half-life result is “about 50.2 hours”.

A further data set relates to mdx mice. Briefly: Treatment of aged mdx mice (Duchenne muscular dystrophy model). The class given is in vivo, mouse. To be noted: 10 mg/kg s.c. every other day, three months, vs huFc. On the procedure:
Muscular dystrophy is one of those disorders. The mouse model for Duchenne's muscular dystrophy is the Duchenne mdx mouse (Jackson Laboratories, Bar Harbor, Me.). Aged (10 month old) mdx mice were injected with either the peptibody 1× mTN8-19-33 (n=8/group) or with the vehicle huFc protein (N=6/group) for a three month period of time. The dosing schedule was every other day, 10 mg/kg, by subcutaneous injection.
As for “1× mTN8-19-33: 1× affinity-matured peptibody; peptide PESQGHCTRWPWMCPPQGWG”, the body weight result is “Significant increases in body weight”, the “fat percentage of body weight” value is “decreased” and the “lean body mass to fat mass ratio (NMR)” value was “significantly increased”.

Another data set has as its target T1, myostatin (Homo sapiens, UniProt O14793).
T1 construct: To produce mature myostatin, the pooled promyostatin was enzymatically cleaved between the propeptide and mature myostatin C terminal; made in house
T1 sequence (O14793 267-375): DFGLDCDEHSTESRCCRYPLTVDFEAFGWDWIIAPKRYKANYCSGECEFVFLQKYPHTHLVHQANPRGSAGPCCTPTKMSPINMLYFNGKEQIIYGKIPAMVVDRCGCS
Briefly: C2C12 pMARE-luc cell based myostatin activity assay.
Conditions: not given
The text has this:
The antagonists including the binding agents described herein can be tested for their ability to bind myostatin and inhibit or block myostatin activity. Any number of assays or animal tests may be used to determine the ability of the agent to inhibit or block myostatin activity. Several assays used for characterizing the peptides and peptibodies of the present invention are described in the Examples below. One assay is the C2C12 pMARE-luc assay which makes use of a myostatin-responsive cell line (C2C12 myoblasts) transfected with a luciferase reporter vector containing myostatin/activin response elements (MARE). Exemplary peptibodies are assayed by pre-incubating a series of peptibody dilutions with myostatin, and then exposing the cells to the incubation mixture. The resulting luciferase activity is determined, and a titration curve is generated from the series of peptibody dilutions. The IC50 (the concentration of peptibody to achieve 50% inhibition of myostatin activity as measured by luciferase activity) was then determined. A second assay described below is a BIAcore® assay to determine the kinetic parameters ka (association rate constant), kd (dissociation rate constant), and KD (dissociation equilibrium constant) for the myostatin binding agents and other antagonists such as antibodies capable of binding myostatin and its receptor. Lower dissociation equilibrium constants (KD, expressed in nM) indicated a greater affinity of the peptibody for myostatin. […] These assays are described in Example 3.
C2C12 Cell Based Myostatin Activity Assay
A myostatin-responsive reporter cell line was generated by transfection of C2C12 myoblast cells (ATCC No: CRL-1772) with a pMARE-luc construct. The pMARE-luc construct was made by cloning twelve repeats of the CAGA sequence, representing the myostatin/activin response elements (Dennler et al. EMBO 17: 3091-3100 (1998)) into a pLuc-MCS reporter vector (Stratagene cat #219087) upstream of the TATA box. The myoblast C2C12 cells naturally express myostatin/activin receptors on its cell surface. When myostatin binds the cell receptors, the Smad pathway is activated, and phosphorylated Smad binds to the response element (Macias-Silva et al. Cell 87:1215 (1996)), resulting in the expression of the luciferase gene. Luciferase activity is then measured using a commercial luciferase reporter assay kit (cat # E4550, Promega, Madison, Wis.) according to manufacturer's protocol. A stable line of C2C12 cells that had been transfected with pMARE-luc (C2C12/pMARE clone #44) was used to measure myostatin activity according to the following procedure.
Equal numbers of the reporter cells (C2C12/pMARE clone #44) were plated into 96 well cultures. A first round screening using two dilutions of peptibodies was performed with the myostatin concentration fixed at 4 nM. Recombinant mature myostatin was preincubated for 2 hours at room temperature with peptibodies at 40 nM and 400 nM respectively. The reporter cell culture was treated with the myostatin with or without peptibodies for six hours. Myostatin activity was measured by determining the luciferase activity in the treated cultures. This assay was used to initially identify peptibody hits that inhibited the myostatin signaling activity in the reporter assay. Subsequently, a nine point titration curve was generated with the myostatin concentration fixed at 4 nM. The myostatin was preincubated with each of the following nine concentrations of peptibodies: […], 0.4 nM, 4 nM, 20 nM, 40 nM, 200 nM, 400 nM, 2 uM and 4 uM for two hours before adding the mixture to the reporter cell culture. The IC50 values were for a number of exemplary peptibodies are provided in Tables III and for affinity matured peptibodies, in Table VIII.
As to “L2: peptibody; peptide MEMLDSLFELLKDMVPISKA”, the “inhibition of myostatin activity in cell-based assay” value was “inhibit myostatin activity”.

Still in this data set, the particulars now being: affinity matured peptibodies; a range of values is given.
Take “1× mTN8-19-21: 1× affinity-matured peptibody; peptide SEYQGLCTRWPWMCPPQGWK”: the IC50 fell in the range of 2.77 to 3.6 nM.

Consider “1× mTN8-19-22: 1× affinity-matured peptibody; peptide TFSQGHCTRWPWMCPPQGWG”, for which the IC50 lay within 1.93 to 3.26 nM.

Substance “1× mTN8-19-32: 1× affinity-matured peptibody; peptide VADHGHCTRWPWMCPPQGWG” had an IC50 of 1.84 to 3.35 nM.

“1× mTN8-19-33: 1× affinity-matured peptibody; peptide PESQGHCTRWPWMCPPQGWG” displayed an IC50 of 2.15 to 2.75 nM.

For “mTN8-19 con1: affinity-matured peptibody; peptide VATQGQCTRWPWMCPPQGWG”, the half-maximal inhibitory concentration (IC50) lay in the range of 1 to 4.4 nM.

Regarding “mTN8-19-2: affinity-matured peptibody; peptide YPEQGLCTRWPWMCPPQTLA”, the IC50 lay within 7.51 to 34.4 nM.

On to “mTN8-19-4: affinity-matured peptibody; peptide MITQGQCTRWPWMCPPQPSG”, for which the IC50 turned out to be 16.7 nM.

Consider “mTN8-19-5: affinity-matured peptibody; peptide AGAQEHCTRWPWMCAPNDWI”, for which the IC50 fell in the range of 3.5 to 7.74 nM.

As to “mTN8-19-6: affinity-matured peptibody; peptide GVNQGQCTRWRWMCPPNGWE”, the midpoint of inhibition, the IC50, lay at 17.3 nM.

“mTN8-19-9: affinity-matured peptibody; peptide TQTHAQCTRWPWMCPPQWEG”: the IC50 fell in the range of 18.8 to 23 nM.

Regarding “mTN8-19-10: affinity-matured peptibody; peptide VVTQGHCTLWPWMCPPQRWR”, the IC50 was 5.25 to 7.4 nM.

“mTN8-19-11: affinity-matured peptibody; peptide IYPHDQCTRWPWMCPPQPYP” had an IC50 of 28.7 nM.

“mTN8-19-12: affinity-matured peptibody; peptide SYWQGQCTRWPWMCPPQWRG” showed an IC50 of 980 nM.

“mTN8-19-13: affinity-matured peptibody; peptide MWQQGHCTRWPWMCPPQGWG” registered an IC50 of 20 nM.

Substance “mTN8-19-14: affinity-matured peptibody; peptide EFTQWHCTRWPWMCPPQRSQ” displayed an IC50 of 4.07 to 6.56 nM.

“mTN8-19-16: affinity-matured peptibody; peptide YQTQGLCTRWPWMCPPQSQR” gave a half-maximal inhibitory concentration (IC50) of 4.65 nM.

In turn, “mTN8-19-23: affinity-matured peptibody; peptide PGAHDHCTRWPWMCPPQSRY” came in with an IC50 of 6.58 nM.

“mTN8-19-24: affinity-matured peptibody; peptide VAEEWHCRRWPWMCPPQDWR”: the IC50 lay in the range of 1.67 to 2.93 nM.

“mTN8-19-27: affinity-matured peptibody; peptide ADTQGHCTRWPWMCPPQHWF” gave a half-inhibitory concentration (IC50) of 4.84 to 4.92 nM.

For “mTN8-19-28: affinity-matured peptibody; peptide SGPQGHCTRWPWMCAPQGWF”, the IC50 was determined as 4.39 nM.

Substance “mTN8-19-29: affinity-matured peptibody; peptide TLVQGHCTRWPWMCPPQRWV” displayed an IC50 of 6.36 nM.

In turn, “mTN8-19-34: affinity-matured peptibody; peptide IPAHGHCTRWPWMCPPQRWR” returned an IC50 of 5.03 to 5.07 nM.

The data set is the same for the next values; noted with them: pMARE luc cell-based assay, myostatin 4 nM.
On to “Linear-20: peptibody; peptide YREMSMLEGLLDVLERLQHY”, for which the IC50 is roughly 11 nM.

As to “TN12-34: peptibody; peptide AHWCEQGPWRYGNICMAY”, the IC50 is roughly 30 nM.

Another data set has as its system CD1 nu/nu mice. Nature of the data set: In vivo anabolic activity in CD1 nu/nu mouse model. To be noted: 1× peptibody; 1, 3, 10 mg/kg s.c. twice or once weekly, 14 days, vs huFc control. The text has this:
In Vivo Anabolic Activity of Exemplary Peptibodies
The CD1 nu/nu mouse model (Charles River Laboratories, Massachusetts) was used to determine the in vivo efficacy of the peptibodies of the present invention which included the human Fc region (huFc). This model responded to the inhibitors of the present invention with a rapid anabolic response which was associated with increased dry muscle mass and an increase in myofibrillar proteins but was not associated with accumulation in body water content.
A group of 10 8 week old CD1 nu/nu mice were treated twice weekly or once weekly with dosages of 1 mg/kg, 3 mg/kg and 10 mg/kg (subcutaneous injection). The control group of 10 8 week old CD1 nu/nu mice received a twice weekly (subcutaneous) injection of huFc (vehicle) at 10 mg/kg. The animals were weighed every other day and lean body mass determined by NMR on day 0 and day 13. The animals are then scarified at day 14 and the size of the gastrocnemius muscle determined.
In another example, the 1× mTN8-19-32 peptibody was administered to CD1 nu/nu mice in a biweekly injection of 1 mg/kg, 3 mg/kg, 10 mg/kg, and 30 mg/kg compared with the huFc control (vehicle).
CD1 nu/nu male mice (10 animals per group) were treated with twice weekly injections of 1 mg/kg and 3 mg/kg of 1× mTN8-19-7 and 2× mTN8-19-7 for 35 days, while the control group (10 animals) received twice weekly injections of huFc (3 mg/kg).
For the substance “1× mTN8-19-21: 1× affinity-matured peptibody; peptide SEYQGLCTRWPWMCPPQGWK”, the total body weight result is “increase in body weight compared with the control”.

The same data set, now with this note: biweekly injection 1, 3, 10, 30 mg/kg vs huFc control.
As for “1× mTN8-19-32: 1× affinity-matured peptibody; peptide VADHGHCTRWPWMCPPQGWG”, the total body weight result is given as “increase in total body weight”.

The data set is the same for the next values; noted with them: biweekly injection 1, 3, 10, 30 mg/kg; day 13 compared with day 0.
In the case of “1× mTN8-19-32: 1× affinity-matured peptibody; peptide VADHGHCTRWPWMCPPQGWG”, the “lean body mass (NMR)” value is on record as “increase”.

A word on the IC50: it is the midpoint of a concentration-inhibition curve.

Values taken from patent US20160038588A1, “Myostatin Antagonism in Human Subjects” (AMGEN INC., priority 2013, published 2016).
